Starred links: 1 amine or outer side, 2 acyl side, 3 side chain; linkers in the order of their positions; H or OH if unused. Non-standard residues stand in square brackets, D forms with d. Groups on a side chain read outwards from the residue. No end group written: not given here. *: point of attachment. C20 diacid = O=C(O)CCCCCCCCCCCCCCCCCCC(=O)*; γGlu = O=C(O)[C@H](CCC(=O)[*:2])N[*:1]; NMeY = CN[C@@H](Cc1ccc(O)cc1)C(=O)O; αMeF = C[C@](N)(Cc1ccccc1)C(=O)O; AEEA = NCCOCCOCC(=O)O; Aib = CC(C)(N)C(=O)O

Holding throughout (assay): cell-based or functional assay
For one assay, the target named is hGLP-1R (Homo sapiens, UniProt P43220).
The target in assay [1] is T1, human GIP receptor (human) (UniProt P48546).
T1 sequence (looked up): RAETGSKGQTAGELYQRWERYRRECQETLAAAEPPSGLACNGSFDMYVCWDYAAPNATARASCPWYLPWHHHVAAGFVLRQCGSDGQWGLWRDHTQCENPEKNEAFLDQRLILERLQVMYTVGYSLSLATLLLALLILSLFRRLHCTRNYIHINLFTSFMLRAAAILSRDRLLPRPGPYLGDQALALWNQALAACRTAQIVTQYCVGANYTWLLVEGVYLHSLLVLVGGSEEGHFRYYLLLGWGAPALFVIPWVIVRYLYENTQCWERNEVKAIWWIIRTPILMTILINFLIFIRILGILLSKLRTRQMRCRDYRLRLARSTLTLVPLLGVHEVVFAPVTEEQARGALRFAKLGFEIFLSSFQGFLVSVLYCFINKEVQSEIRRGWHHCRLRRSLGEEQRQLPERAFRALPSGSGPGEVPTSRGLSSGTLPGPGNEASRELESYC

Assay [2] deals with human glucagon receptor (human) (UniProt P47871).
Sequence of human glucagon receptor (human) (P47871 26-477): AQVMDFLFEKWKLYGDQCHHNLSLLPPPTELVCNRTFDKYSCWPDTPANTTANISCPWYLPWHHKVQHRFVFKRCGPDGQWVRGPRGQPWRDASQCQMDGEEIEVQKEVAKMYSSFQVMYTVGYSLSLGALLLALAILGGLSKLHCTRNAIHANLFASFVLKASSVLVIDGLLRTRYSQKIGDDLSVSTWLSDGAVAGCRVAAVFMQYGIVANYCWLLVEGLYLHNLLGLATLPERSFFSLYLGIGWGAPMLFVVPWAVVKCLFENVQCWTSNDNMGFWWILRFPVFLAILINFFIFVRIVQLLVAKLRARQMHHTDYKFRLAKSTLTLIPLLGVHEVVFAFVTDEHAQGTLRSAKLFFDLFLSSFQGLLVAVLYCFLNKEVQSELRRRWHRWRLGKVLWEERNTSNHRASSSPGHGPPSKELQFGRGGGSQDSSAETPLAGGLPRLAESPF

Sequence of hGLP-1R (P43220 24-463): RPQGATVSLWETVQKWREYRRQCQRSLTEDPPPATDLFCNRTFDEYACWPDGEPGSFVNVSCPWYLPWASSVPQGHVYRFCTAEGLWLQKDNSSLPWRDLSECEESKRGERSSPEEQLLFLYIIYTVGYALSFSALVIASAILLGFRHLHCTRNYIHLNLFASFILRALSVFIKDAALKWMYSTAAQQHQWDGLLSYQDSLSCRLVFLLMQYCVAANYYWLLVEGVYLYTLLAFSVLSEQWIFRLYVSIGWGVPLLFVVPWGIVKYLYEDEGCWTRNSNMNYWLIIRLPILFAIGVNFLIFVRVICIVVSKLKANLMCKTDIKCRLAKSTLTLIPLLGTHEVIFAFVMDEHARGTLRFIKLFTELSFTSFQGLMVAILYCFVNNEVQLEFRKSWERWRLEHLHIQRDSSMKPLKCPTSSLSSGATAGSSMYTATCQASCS

On to [NMeY][Aib]QGT[αMeF]TSDYSILLDKIAAKAFIEYLIEGGPSSGEPPPSEG-NH2 (not fully specified (residue 20)) [Example 299], for which the Relative cAMP EC50 in the assay with hGLP-1R worked out at 0.963 nM; in assay [1], 0.137 nM; in assay [2], 2.54 nM. Further, the cAMP Rel EC50 (1% HSA) came to 380 nM with hGLP-1R, 40.2 nM in assay [1] and 1700 nM in assay [2].

B1: Example 292 (peptide)
chain: YXQGTXTSDYSKXLDKKAQXQFIEYLEEGGPSSGEPPPSEG
modifications: synthetic construct; SITE 2: note = 2-Aminoisobutyric Acid; SITE 6: note = alpha-methyl-2-fluoro-L-phenylalanine; SITE 13: note = alpha-methyl-leucine; SITE 17: note = Lysine is chemically modified through conjugation of the epsilon-amino group of the Lysine side chain with (2-[2-(2-Amino-ethoxy)-et)
For B1, the Relative cAMP EC50 with hGLP-1R was 1.03 nM; in assay [1], 1.02 nM; in assay [2], 1.84 nM. In addition, the values for the cAMP Rel EC50 (in the presence of 1% HSA) (in the assay with hGLP-1R; in assay [1]; in assay [2]) were 129 nM, 92.7 nM and 583 nM, respectively.

B2: Example 281 (peptide)
chain: YXQGTFTSDXSKXLDKKAQXAFIEYLIEXGESSGEPPPSGE
modifications: synthetic construct; SITE 2: note = 2-Aminoisobutyric Acid; SITE 10: note = 3-(4-Pyridyl)-L-alanine; SITE 13: note = alpha-methyl-leucine; SITE 17: note = Lysine is chemically modified through conjugation of the epsilon-amino group of the Lysine side chain with (2-[2-(2-Amino-ethoxy)-ethoxy]-acetyl)
In the case of B2, the Relative cAMP EC50 worked out at 1.6 nM with hGLP-1R, 0.154 nM in assay [1] and 13.7 nM in assay [2]. Besides, the values for the cAMP Rel EC50 (in the presence of 1% HSA) (in the assay with hGLP-1R; in assay [1]; in assay [2]) were 295 nM, 25.8 nM and 1370 nM, respectively.

B3: Example 286 (peptide)
chain: YXQGTFTSDXSKXLDKKAQXAFIEYLIAXGESSGEPPPSGE
modifications: synthetic construct; SITE 2: note = 2-Aminoisobutyric Acid; SITE 10: note = 3-(4-Pyridyl)-L-alanine; SITE 13: note = alpha-methyl-leucine; SITE 17: note = Lysine is chemically modified through conjugation of the epsilon-amino group of the Lysine side chain with (2-[2-(2-Amino-ethoxy)-ethoxy]-acetyl)
As to B3, the Relative cAMP EC50 with hGLP-1R was determined as 3.45 nM; in assay [1], 0.0845 nM; in assay [2], 2.2 nM. Moreover, the cAMP Rel EC50 (in the presence of 1% HSA) with hGLP-1R came to 925 nM; in assay [1], 11.5 nM; in assay [2], 228 nM.

B4: Example 284 (peptide)
chain: YXQGTFTSDXSKXLDKKAQXAFIEYLIEAGESSGEPPPSGS
modifications: synthetic construct; SITE 2: note = 2-Aminoisobutyric Acid; SITE 10: note = 3-(4-Pyridyl)-L-alanine; SITE 13: note = alpha-methyl-leucine; SITE 17: note = Lysine is chemically modified through conjugation of the epsilon-amino group of the Lysine side chain with (2-[2-(2-Amino-ethoxy)-ethoxy]-acetyl)
Consider B4, for which the Relative cAMP EC50 in the assay with hGLP-1R was 1.54 nM; in assay [1], 0.347 nM; in assay [2] it was 9.21 nM. Also, the cAMP Rel EC50 (in the presence of 1% HSA) with hGLP-1R turned out to be 271 nM; in assay [1] it was 59.8 nM; in assay [2], 1530 nM.

B5: Example 283 (peptide)
chain: YXQGTFTSDXSKXLDKKAQXAFIEYLIEAGESSGAPPPSGS
modifications: synthetic construct; SITE 2: note = 2-Aminoisobutyric Acid; SITE 10: note = 3-(4-Pyridyl)-L-alanine; SITE 13: note = alpha-methyl-leucine; SITE 17: note = Lysine is chemically modified through conjugation of the epsilon-amino group of the Lysine side chain with (2-[2-(2-Amino-ethoxy)-ethoxy]-acetyl)
Take B5: the Relative cAMP EC50 is 1.16 nM with hGLP-1R, 0.225 nM in assay [1] and 9.73 nM in assay [2]. The cAMP Rel EC50 (in the presence of 1% HSA) stood at 233 nM with hGLP-1R, 47.2 nM in assay [1] and 1470 nM in assay [2].

B6: Example 287 (peptide)
chain: YXQGTFTSDXSKXLDKKAQXAFIEYLIAXGESSGEPPPSGS
modifications: synthetic construct; SITE 2: note = 2-Aminoisobutyric Acid; SITE 10: note = 3-(4-Pyridyl)-L-alanine; SITE 13: note = alpha-methyl-leucine; SITE 17: note = Lysine is chemically modified through conjugation of the epsilon-amino group of the Lysine side chain with (2-[2-(2-Amino-ethoxy)-ethoxy]-acetyl)
Turning to B6, the figures for the Relative cAMP EC50 (with hGLP-1R; in assay [1]; in assay [2]) were 4.25 nM, 0.0633 nM and 2.53 nM, respectively. Further, the cAMP Rel EC50 (in the presence of 1% HSA) amounted to 562 nM with hGLP-1R, 9.94 nM in assay [1] and 291 nM in assay [2].

B7: Example 263 (peptide)
chain: YXQGTFTSDFSXXLDKKAQXAFIEWLLEAGSSSGAPPPSGT
modifications: synthetic construct; SITE 2: note = 2-Aminoisobutyric Acid; SITE 12: note = L-ornithine; SITE 13: note = alpha-methyl-leucine; SITE 17: note = Lysine is chemically modified through conjugation of the epsilon-amino group of the Lysine side chain with (2-[2-(2-Amino-ethoxy)-ethoxy]-acetyl)-(gamma-Glu)
Turning to B7, the values for the Relative cAMP EC50 (in the assay with hGLP-1R; in assay [1]; in assay [2]) were 1.32 nM, 0.169 nM and 7.53 nM, respectively. Also, the cAMP Rel EC50 (in the presence of 1% HSA) is 257 nM with hGLP-1R, 25.7 nM in assay [1] and 893 nM in assay [2].

B8: Example 271 (peptide)
chain: YXQGTFTSDFSXXLDKKAQXAFIEWLLEGGHSSGAPPPGGE
modifications: synthetic construct; SITE 2: note = 2-Aminoisobutyric Acid; SITE 12: note = L-ornithine; SITE 13: note = alpha-methyl-leucine; SITE 17: note = Lysine is chemically modified through conjugation of the epsilon-amino group of the Lysine side chain with (2-[2-(2-Amino-ethoxy)-ethoxy]-acetyl)2-(gamma-Glu)
B8: the Relative cAMP EC50 with hGLP-1R was 5 nM; in assay [1] it was 0.152 nM; in assay [2], 8.51 nM. Besides, the cAMP Rel EC50 (in the presence of 1% HSA) with hGLP-1R is 887 nM; in assay [1] it was 15.7 nM; in assay [2] it was 2680 nM.

B9: Example 268 (peptide)
chain: YXQGTFTSDFSXXLDKKAQXAFIEWLLEGGXSSGAPPPSGT
modifications: synthetic construct; SITE 2: note = 2-Aminoisobutyric Acid; SITE 12: note = L-ornithine; SITE 13: note = alpha-methyl-leucine; SITE 17: note = Lysine is chemically modified through conjugation of the epsilon-amino group of the Lysine side chain with (2-[2-(2-Amino-ethoxy)-ethoxy]-acetyl)-(gamma-Glu)
Consider B9, for which the Relative cAMP EC50 amounted to 3.14 nM with hGLP-1R, 0.274 nM in assay [1] and 7.69 nM in assay [2]. Further, the cAMP Rel EC50 (in the presence of 1% HSA) was determined as 437 nM with hGLP-1R, 33.7 nM in assay [1] and 1300 nM in assay [2].

The values are drawn from US20240270821A1, “GIP/GLP1/GCG TRI-RECEPTOR AGONISTS AND USES THEREOF” (priority 2023, published 2024).
